Assay results taken from doi:10.1101/2022.09.16.508221 (bioRxiv, 2022).
“And” between values parts separate entries of the source, which are not always exact repeats. Equal values may be shown once.

How the values were obtained:
mass photometry = biological target: the molecule itself; experiment: mass photometry
SEC = biological target: the molecule itself; experiment: SEC

B1: Hermes transposase (full-length, with the mutations Q2E and K128G) (enzyme, Musca domestica, UniProt Q25438 1-612, looked up)
chain: MEKMDNLEVKAKINQGLYKITPRHKGTSFIWNVLADIQKEDDTLVEGWVFCRKCEKVLKYTTRQTSNLCRHKCCASLKQSRELKTVSADCKKEAIEKCAQWVVRDCRPFSAVSGSGFIDMIKFFIKVGAEYGEHVNVEELLPSPITLSRKVTSDAKEKKALISREIKSAVEKDGASATIDLWTDNYIKRNFLGVTLHYHENNELRDLILGLKSLDFERSTAENIYKKLKAIFSQFNVEDLSSIKFVTDRGANVVKSLANNIRINCSSHLLSNVLENSFEETPELNMPILACKNIVKYFKKANLQHRLRSSLKSECPTRWNSTYTMLRSILDNWESVIQILSEAGETQRIVHINKSIIQTMVNILDGFERIFKELQTCSSPSLCFVVPSILKVKEICSPDVGDVADIAKLKVNIIKNVRIIWEENLSIWHYTAFFFYPPALHMQQEKVAQIKEFCLSKMEDLELINRMSSFNELSATQLNQSDSNSHNSIDLTSHSKDISTTSFFFPQLTQNNSREPPVCPSDEFEFYRKEIVILSEDFKVMEWWNLNSKKYPKLSKLALSLLSIPASSAASERTFSLAGNIITEKRNRIGQQTVDSLLFLNSFYKNFCKLDI
stoichiometry N (mass photometry): 2
stoichiometry N (SEC): 8 and 6
